Experimental data: patent US20140286972A1

Tests used:
[1] = target: IgE antibodies of a mixture of sera of patients allergic to P. judaica (human); assay: ELISA inhibition, extract on solid phase, pooled sera preincubated with inhibitor
[2] = target: IgE antibodies of a mixture of sera of patients allergic to P. judaica (human); assay: ELISA inhibition, extract on solid phase, pooled sera
[3] = target: IgE antibodies of a mixture of sera of patients allergic to P. judaica (human); assay: ELISA inhibition, extract on solid phase, pooled sera; reference nPar j 1-Par j 2
[4] = target: IgE antibodies of a mixture of sera of patients allergic to P. judaica (human); assay: ELISA inhibition, extract on solid phase, pooled sera; reference Q1

| maximum degree of inhibition of IgE binding to P. judaica extract [1] [%] | reduction of allergenicity (IgE-binding) against nPar j 1-Par j 2 [2] [%] | fold higher protein concentration than nPar j 1-Par j 2 for the same degree of inhibition [3] [times] | fold less allergenic than the chimeric protein Q1 [4] [times] | degree of inhibition of IgE binding to P. judaica extract [1] [%] | fold more protein needed than nPar j 1-Par j 2 [3] [times] | Binder |
| --- | --- | --- | --- | --- | --- | --- |
| 60 | 100 | 10000 | – | – | – | chimeric protein Q3 (protein) MRGSHHHHHHGILPETCGTMVRALMPCLPFVQGKEKEPSKGLQIQTAMKTYSDIDGKLVSEVRSSKLPPIDVNMDCKTLGVVPRQPQLPVSLRHGPVTGPSDPAHKARLERPQIRVPPPAPEKAEFEEACGKVVQDIMPCLHFVKGEEKEPSKEDIIVRATKGISGIKNELVAEVPGTLPPITADFDCSKIQSTIFRGYY |
| 60 | 100 | 10000 | 20 | – | – | chimeric protein Q2 (protein) MRGSHHHHHHGILQETCGTMVRALMPCLPFVQGKEKEPSKGLQIQTAMKTYSDIDGKLVSEVPKHCGIVDSKLPPIDVNMDCKTLGVVPRQPQLPVSLRHGPVTGPSDPAHKARLERPQIRVPPPAPEKAEFEEACGKVVQDIMPCLHFVKGEEKEPSKEDIIVRATKGISGIKNELVAEVPKKCDIKTTLPPITADFDCSKIQSTIFRGYY |
| – | – | – | – | 50 | 500 | chimeric protein Q1 (protein) MRGSHHHHHHGILQETCGTMVRALMPCLPFVQGKEKEPSKGCCSGAKRLDGETKTGPQRVHACECIQTAMKTYSDIDGKLVSEVPKHCGIVDSKLPPIDVNMDCKTLGVVPRQPQLPVSLRHGPVTGPSDPAHKARLERPQIRVPPPAPEKAEFEEACGKVVQDIMPCLHFVKGEEKEPSKECCSGTKKLSEEVKTTEQKREACKCIVRATKGISGIKNELVAEVPKKCDIKTTLPPITADFDCSKIQSTIFRGYY |
